Measured values reported in patent US20100260668A1 (published 2010).

T1: PlGF (UniProt P49763-2 21-149, limits assumed)
T1 construct: Bought antigen coated on the ELISA plate; also called Placental GF; placental growth factor
T1 sequence (looked up): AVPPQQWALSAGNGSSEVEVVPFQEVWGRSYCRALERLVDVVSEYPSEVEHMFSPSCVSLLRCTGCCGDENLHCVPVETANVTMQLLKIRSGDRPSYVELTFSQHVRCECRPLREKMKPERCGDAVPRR

T2: PlGF (UniProt P49763-2 21-149, limits assumed)
T2 construct: bought antigen coated on the ELISA plate; also called Placental GF
T2 sequence (looked up): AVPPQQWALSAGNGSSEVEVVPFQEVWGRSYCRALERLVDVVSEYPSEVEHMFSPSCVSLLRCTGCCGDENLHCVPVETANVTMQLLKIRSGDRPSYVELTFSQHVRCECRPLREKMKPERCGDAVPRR


Tests used:
[1] = biological target: T3, DLL4 (human, UniProt Q9NR61 27-685); assay: flow cytometry on 293G-human DLL4 cells; DLL4 VD C-terminal
T3 construct: whole, on cells; also called human DLL4

[2] = biological target: T4, VEGF (UniProt P15692 27-191, limits assumed); assay: direct bind ELISA, antigen on plate; C-terminal VD
T4 construct: Bought antigen coated on the ELISA plate; also called vascular endothelial growth factor
T4 sequence (P15692 other isoform, or with tags, fused parts or gaps limits assumed): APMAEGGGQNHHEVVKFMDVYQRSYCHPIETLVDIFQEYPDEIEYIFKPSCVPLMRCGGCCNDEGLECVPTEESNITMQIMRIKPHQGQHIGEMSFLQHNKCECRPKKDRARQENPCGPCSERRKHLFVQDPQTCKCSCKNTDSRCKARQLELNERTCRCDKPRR
Description: (§1) Enzyme Linked Immunosorbent Assays to screen for antibodies that bind a desired target antigen were performed as follows. […] Plates were washed four times with PBS containing 0.02% Tween 20. Plates were blocked by the addition of 300 μL/well blocking solution (non-fat dry milk powder, various retail suppliers, diluted to 2% in PBS) for ½ hour at room temperature. Plates were washed four times after blocking with PBS containing 0.02% Tween 20.
(§2) Plates were washed 4 times with PBS containing 0.02% Tween 20.

[3] = biological target: T1, PlGF; assay: direct bind ELISA, antigen on plate; N-terminal VD
Description: as §1, §2

[4] = biological target: T5, VEGF (UniProt P15692 27-191, limits assumed); assay: direct bind ELISA, C-terminal VD
T5 construct: bought antigen coated on the ELISA plate
T5 sequence (P15692 other isoform, or with tags, fused parts or gaps limits assumed): as above

[5] = biological target: T2, PlGF; assay: direct bind ELISA, N-terminal VD

| Binder | EC50 [1] [nM] | EC50 [2] [nM] | EC50 [3] [nM] | also measured |
| --- | --- | --- | --- | --- |
| DVD476 (bispecific antibody, human IgG1, kappa, DVD-Ig; also called VEGF and DLL4 DVD-Ig, HC linker long, LC linker short) heavy: not shown light: DIQMTQSPSSLSASVGDRVTITCSASQDISNYLNWYQQKPGKAPKVLIYFTSSLHSGVPSRFSGSGSGTDFTLTISSLQPEDFATYYCQQYSTVPWTFGQGTKVEIKRTVAAPDIQMTQSPSSLSASVGDRVTITCRASQDVSTAVAWYQQKPGKAPKLLIYSASFLYSGVPSRFSGSGSGTDFTLTISSLQPEDFATTYYCQQSYTGTVTFGQGTKVEIKRTVAAPSVFIFPPSDEQLKSGTASVVCLLNNFYPREAKVQWKVDNALQSGNSQESVTEQDSKDSTYSLSSTLTLSKADYEKHKVYACEVTHQGLSSPVTKSFNRGEC | 11.7 |  |  |  |
| DVD470 (bispecific antibody, human IgG1, kappa, DVD-Ig; also called VEGF and DLL4 DVD-Ig, HC linker long, LC linker long) heavy: not shown light: DIQMTQSPSSLSASVGDRVTITCSASQDISNYLNWYQQKPGKAPKVLIYFTSSLHSGVPSRFSGSGSGTDFTLTISSLQPEDFATYYCQQYSTVPWTFGQGTKVEIKRTVAAPSVFIFPPDIQMTQSPSSLSASVGDRVTITCRASQDVSTAVAWYQQKPGKAPKLLIYSASFLYSGVPSRFSGSGSGTDFTLTISSLQPEDFATTYYCQQSYTGTVTFGQGTKVEIKRTVAAPSVFIFPPSDEQLKSGTASVVCLLNNFYPREAKVQWKVDNALQSGNSQESVTEQDSKDSTYSLSSTLTLSKADYEKHKVYACEVTHQGLSSPVTKSFNRGEC | 1.72 |  |  |  |
| DVD482 (bispecific antibody, human IgG1, kappa, DVD-Ig; also called VEGF and DLL4 DVD-Ig, HC linker short, LC linker long) heavy: not shown light: DIQMTQSPSSLSASVGDRVTITCSASQDISNYLNWYQQKPGKAPKVLIYFTSSLHSGVPSRFSGSGSGTDFTLTISSLQPEDFATYYCQQYSTVPWTFGQGTKVEIKRTVAAPSVFIFPPDIQMTQSPSSLSASVGDRVTITCRASQDVSTAVAWYQQKPGKAPKLLIYSASFLYSGVPSRFSGSGSGTDFTLTISSLQPEDFATTYYCQQSYTGTVTFGQGTKVEIKRTVAAPSVFIFPPSDEQLKSGTASVVCLLNNFYPREAKVQWKVDNALQSGNSQESVTEQDSKDSTYSLSSTLTLSKADYEKHKVYACEVTHQGLSSPVTKSFNRGEC | 3.25 |  |  |  |
| DVD591 (bispecific antibody, human IgG1, kappa, DVD-Ig, N-terminal PlGF (AB047), C-terminal VEGF (AB071); HC linker long, LC linker short; also called DVD591VH; DVD591VL) heavy: not shown light: DIVLTQSPDSLAVSLGERVTMNCKSSQSLLNSGMRKSFLAWYQQKPGQSPKLLIYWASTRESGVPDRFTGSGSGTDFTLTISSVQAEDVAVYYCKQSYHLFTFGSGTKLEIKRTVAAPDIQMTQSPSSLSASVGDRVTITCRASQVIRRSLAWYQQKPGKAPKLLIYAASNLASGVPSRFSGSGSGTDFTLTISSLQPEDFATYYCQQSNTSPLTFGQGTKVEIKRTVAAPSVFIFPPSDEQLKSGTASVVCLLNNFYPREAKVQWKVDNALQSGNSQESVTEQDSKDSTYSLSSTLTLSKADYEKHKVYACEVTHQGLSSPVTKSFNRGEC |  | 1170 | 0.13 |  |
| DVD599 (bispecific antibody, human IgG1, kappa, DVD-Ig, N-terminal PlGF (AB047), C-terminal VEGF (AB071); HC linker short, LC linker long; also called DVD599VH; DVD599VL) heavy: not shown light: DIVLTQSPDSLAVSLGERVTMNCKSSQSLLNSGMRKSFLAWYQQKPGQSPKLLIYWASTRESGVPDRFTGSGSGTDFTLTISSVQAEDVAVYYCKQSYHLFTFGSGTKLEIKRTVAAPSVFIFPPDIQMTQSPSSLSASVGDRVTITCRASQVIRRSLAWYQQKPGKAPKLLIYAASNLASGVPSRFSGSGSGTDFTLTISSLQPEDFATYYCQQSNTSPLTFGQGTKVEIKRTVAAPSVFIFPPSDEQLKSGTASVVCLLNNFYPREAKVQWKVDNALQSGNSQESVTEQDSKDSTYSLSSTLTLSKADYEKHKVYACEVTHQGLSSPVTKSFNRGEC |  | 664 | 0.23 |  |
| DVD583 (bispecific antibody, human IgG1, kappa, outer AB047 (PlGF), inner AB071 (VEGF); HC linker long, LC linker long; also called DVD-Ig DVD583) heavy: not shown light: DIVLTQSPDSLAVSLGERVTMNCKSSQSLLNSGMRKSFLAWYQQKPGQSPKLLIYWASTRESGVPDRFTGSGSGTDFTLTISSVQAEDVAVYYCKQSYHLFTFGSGTKLEIKRTVAAPSVFIFPPDIQMTQSPSSLSASVGDRVTITCRASQVIRRSLAWYQQKPGKAPKLLIYAASNLASGVPSRFSGSGSGTDFTLTISSLQPEDFATYYCQQSNTSPLTFGQGTKVEIKRTVAAPSVFIFPPSDEQLKSGTASVVCLLNNFYPREAKVQWKVDNALQSGNSQESVTEQDSKDSTYSLSSTLTLSKADYEKHKVYACEVTHQGLSSPVTKSFNRGEC |  |  |  | EC50 [4]: 560 nM; EC50 [5]: 0.32 nM |
| DVD597 (bispecific antibody, human IgG1, kappa, HC linker short, LC linker long; also called DVD597VH; DVD597VL) heavy: not shown light: DIVLTQSPDSLAVSLGERVTMNCKSSQSLLNSGMRKSFLAWYQQKPGQSPKLLIYWASTRESGVPDRFTGSGSGTDFTLTISSVQAEDVAVYYCKQSYHLFTFGSGTKLEIKRTVAAPSVFIFPPDIQMTQSPSSLSASVGDRVTITCRASQDVSTAVAWYQQKPGKAPKLLIYSASFLYSGVPSRFSGSGSGTDFTLTISSLQPEDFATYYCQQSYTTPPTFGQGTKVEIKRTVAAPSVFIFPPSDEQLKSGTASVVCLLNNFYPREAKVQWKVDNALQSGNSQESVTEQDSKDSTYSLSSTLTLSKADYEKHKVYACEVTHQGLSSPVTKSFNRGEC |  | 31.1 | 0.17 |  |
| DVD474 (bispecific antibody, human IgG1, kappa, DVD-Ig; outer AB071 (VEGF), inner AB015 (DLL4); also called VEGF and DLL4 DVD-Ig, HC linker long, LC linker long) heavy: not shown light: DIQMTQSPSSLSASVGDRVTITCRASQVIRRSLAWYQQKPGKAPKLLIYAASNLASGVPSRFSGSGSGTDFTLTISSLQPEDFATYYCQQSNTSPLTFGQGTKVEIKRTVAAPSVFIFPPDIQMTQSPSSLSASVGDRVTITCRASQDVSTAVAWYQQKPGKAPKLLIYSASFLYSGVPSRFSGSGSGTDFTLTISSLQPEDFATTYYCQQSYTGTVTFGQGTKVEIKRTVAAPSVFIFPPSDEQLKSGTASVVCLLNNFYPREAKVQWKVDNALQSGNSQESVTEQDSKDSTYSLSSTLTLSKADYEKHKVYACEVTHQGLSSPVTKSFNRGEC | 2.19 |  |  |  |
| DVD486 (bispecific antibody, human IgG1, kappa, DVD-Ig; outer AB071 (VEGF), inner AB015 (DLL4); also called VEGF and DLL4 DVD-Ig, HC linker short, LC linker long) heavy: not shown light: DIQMTQSPSSLSASVGDRVTITCRASQVIRRSLAWYQQKPGKAPKLLIYAASNLASGVPSRFSGSGSGTDFTLTISSLQPEDFATYYCQQSNTSPLTFGQGTKVEIKRTVAAPSVFIFPPDIQMTQSPSSLSASVGDRVTITCRASQDVSTAVAWYQQKPGKAPKLLIYSASFLYSGVPSRFSGSGSGTDFTLTISSLQPEDFATTYYCQQSYTGTVTFGQGTKVEIKRTVAAPSVFIFPPSDEQLKSGTASVVCLLNNFYPREAKVQWKVDNALQSGNSQESVTEQDSKDSTYSLSSTLTLSKADYEKHKVYACEVTHQGLSSPVTKSFNRGEC | 2.09 |  |  |  |
| DVD589 (bispecific antibody, human IgG1, kappa, HC linker long, LC linker short; also called DVD589VH; DVD589VL) heavy: not shown light: DIVLTQSPDSLAVSLGERVTMNCKSSQSLLNSGMRKSFLAWYQQKPGQSPKLLIYWASTRESGVPDRFTGSGSGTDFTLTISSVQAEDVAVYYCKQSYHLFTFGSGTKLEIKRTVAAPDIQMTQSPSSLSASVGDRVTITCRASQDVSTAVAWYQQKPGKAPKLLIYSASFLYSGVPSRFSGSGSGTDFTLTISSLQPEDFATYYCQQSYTTPPTFGQGTKVEIKRTVAAPSVFIFPPSDEQLKSGTASVVCLLNNFYPREAKVQWKVDNALQSGNSQESVTEQDSKDSTYSLSSTLTLSKADYEKHKVYACEVTHQGLSSPVTKSFNRGEC |  | 1360 | 0.12 |  |
